Results taken from patent publication US20060121047A1, “Use of hmgb polypetides for increasing immune responses” (priority 2002, published 2006).

What was measured:
RAW 264.7 cells [1] = experiment: IL-1β release from RAW 264.7 cells (ELISA); assay type: cell-based, murine; conditions: B box 0-10 μg/ml, 8 hours (FIG. 2B)
Experimental: (§1) Murine macrophage-like RAW 264.7 cells (American Type Culture Collection, Rockville, Md.) were cultured in RPMI 1640 medium (Life Technologies, Grand Island N.Y.) supplemented with 10% fetal bovine serum (Gemini, Catabasas, Calif.), penicillin and streptomycin (Life Technologies) and were used at 90% confluence in serum-free Opti-MEM I medium (Life Technologies, Grand Island, N.Y.). […] Polymyxin B was not used in experiments of synthetic peptide studies.
(§2) To further examine the effect of HMGB1 B box on cytokine production, varying amounts of HMGB1 B box were evaluated for the effects on TNF, IL-1B, and IL-6 production in murine macrophage-like RAW 264.7 cells. Conditioned media were harvested and measured for TNF, IL-1β and IL-6 levels. TNF levels were measured as described herein, and IL-1β and IL-6 levels were measured using the mouse IL-1β and IL-6 enzyme-linked immunosorbent assay (ELISA) kits (R&D System Inc., Minneapolis, 1) and N>5 for all experiments.

RAW 264.7 cells [2] = experiment: TNF mRNA expression in RAW 264.7 cells (RNase protection assay); assay type: cell-based, murine; conditions: 10 μg/ml
Experimental: The kinetics of B box-induced TNF release was also examined. TNF release and TNF mRNA expression was measured in RAW 264.7 cells induced by B box polypeptide or GST tag polypeptide only used as a control (vector) (10 μg/ml) for 0 to 48 hours. Supernatants were analyzed for TNF protein levels by an L929 cytotoxicity assay (N=3-5) as described herein. For mRNA measurement, cells were plated in 100 mm plate and treated in Opti-MEM I medium containing B box polypeptide or the vector alone for 0, 4, 8, or 24 hours, as indicated in FIG. 2D. The vector only sample was assayed at the 4 hour time point. Cells were scraped off the plate and total RNA was isolated by RNAzol B method in accordance with the manufacturer's instructions (Tel-Test “B”, Inc., Friendswood, Tex.). TNF (287 bp) was measured by RNase protection assay (Ambion, Austin, Tex.). Equal loading and the integrity of RNA was verified by ethidium bromide staining of the RNA sample on agarose-formaldehyde gel. […] TNF mRNA expression was maximal at 4 hours and decreased at 8 and 24 hours. […] A similar study was carried out measuring TNF protein released from RAW 264.7 cells 0, 4, 8, 24, 32 or 48 hours after administration of B box or vector only (GST tag), using the L929 cytotoxicity assay described herein. […] Data are representative of three separate experiments.

C3H/HeJ mice = experiment: Lethality and histology in C3H/HeJ mice; assay type: in vivo
Source text: Male 6-8 week old Balb/c and C3H/HeJ mice were purchased from Harlen Sprague-Dawley (Indianapolis, Ind.) and were allowed to acclimate for 7 days before use in experiments. All animals were housed in the North Shore University Hospital Animal Facility under standard temperature, and a light and dark cycle.

[3] = system: D-galactosamine-sensitized Balb/c mice; experiment: Histology of organs of D-galactosamine-sensitized Balb/c mice; assay type: in vivo; conditions: 1 mg/mouse i.p. plus D-gal, 7 hours
Experimental: (§3) To further assess the lethality of the HMGB1 B box protein in vivo the HMGB1 B box was again administered to D-galactosamine-sensitized Balb/c mice. Mice (3 per group) received D-gal (20 mg/mouse) plus B box or vector (1 mg/mouse) intraperitoneally for 7 hours and were then sacrificed by decapitation. Blood was collected, and organs (liver, heart, kidney and lung) were harvested and fixed in 10% formaldehyde. Tissue sections were prepared with hematoxylin and eosin staining for histological evaluation (Criterion Inc., Vancouver, Canada). […] In FIG. 4J, hepatocyte dropouts are seen surrounded by accumulated polymorphonuclear leukocytes. The arrows in FIG. 4J point to the sites of polymorphonuclear accumulation (dotted) or apoptotic hepatocytes (solid).

[4] = system: D-galactosamine-sensitized Balb/c mice; experiment: Serum cytokine levels in D-galactosamine-sensitized Balb/c mice; assay type: in vivo; conditions: 1 mg/mouse i.p. plus D-gal, 7 hours
Experimental: as §3

RAW 264.7 cells [5] = experiment: IL-6 release from RAW 264.7 cells (ELISA); assay type: cell-based, murine; conditions: B box 0-10 μg/ml, 8 hours (FIG. 2C)
Experimental: as §1, §2

B1: B box: Recombinant GST-system human HMGB1 mutant containing only the B box, 74 amino acids, SEQ ID NO: 20 (protein, listed as Homo sapiens)
chain: FKDPNAPKRLPSAFFLFCSEYRPKIKGEHPGLSIGDVAKKLGEMWNNTAADDKQPYEKKAAKLKEKYEKDIAAY
modifications: GST system
Q: For B1, which “IL-1β release, dose dependence” value (RAW 264.7 cells [1]) is on record?
A: The value was “addition of 1 μg/ml or 10 μg/ml of B box resulted in increased release”.

Q: And the “IL-1β release, dose dependence” value (RAW 264.7 cells [1]; listed as HMGB1 B box)?
A: The value was “dose-dependently stimulated release”.

Q: What about the “time of maximal TNF mRNA expression” value (RAW 264.7 cells [2]) of the same molecule?
A: The value was 4 h.

Q: And the “TNF mRNA expression” value (RAW 264.7 cells [2]; 0, 4, 8 or 24 hours (vector at 4 hours) (FIG. 2D))?
A: The value was “increased significantly”.

Q: And the histology of heart (C3H/HeJ mice; 8 hours after administration)?
A: The histology of heart was “evidence of ischemia with loss of cross striation”.

Q: And the histology of liver (C3H/HeJ mice; 8 hours after administration)?
A: Its histology of liver is “mild acute inflammatory responses”.

Q: What about the “histology of lung and kidney” value (C3H/HeJ mice; 8 hours after administration) of the same molecule?
A: The value was “no abnormal morphologic changes”.

Q: What about the lethality (C3H/HeJ mice; C3H/HeJ mice (do not respond to endotoxin)) of the same molecule?
A: The lethality was “lethal”.

Q: What about the histology of heart [3] of the same molecule?
A: Its histology of heart is “some ischemic changes and loss of cross striation in myocardial fibers”.

Q: And the “histology of kidneys and lungs” value [3]?
A: The value was “no abnormality”.

Q: What about the histology of liver [3] of the same molecule?
A: Its histology of liver is “active hepatitis”.

Q: What about the “serum levels of IL-1β” value [4] of the same molecule?
A: The value was 15+3 pg/ml.

Q: And the “serum levels of IL-6” value [4]?
A: Its value is 315+93 pg/ml.

Q: What about the “IL-6 release, dose dependence” value (RAW 264.7 cells [5]) of the same molecule?
A: The value was “increased with increased amounts of B box”.

Q: And the “IL-6 release, dose dependence” value (RAW 264.7 cells [5]; listed as HMGB1 B box)?
A: The value was “dose-dependently stimulated release”.
